This experiment addresses T1, murine E^d MHC class II allele (Mus musculus, UniProt P01904+P01915).
T1 sequence (P01904 26-255): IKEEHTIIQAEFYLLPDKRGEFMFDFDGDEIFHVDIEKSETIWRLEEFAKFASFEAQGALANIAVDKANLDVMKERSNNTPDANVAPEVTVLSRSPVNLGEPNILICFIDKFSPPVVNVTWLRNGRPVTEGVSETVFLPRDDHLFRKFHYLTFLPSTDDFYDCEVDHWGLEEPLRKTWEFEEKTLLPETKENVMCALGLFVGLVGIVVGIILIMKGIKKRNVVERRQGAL
T1 sequence (P01915 27-264 limits assumed): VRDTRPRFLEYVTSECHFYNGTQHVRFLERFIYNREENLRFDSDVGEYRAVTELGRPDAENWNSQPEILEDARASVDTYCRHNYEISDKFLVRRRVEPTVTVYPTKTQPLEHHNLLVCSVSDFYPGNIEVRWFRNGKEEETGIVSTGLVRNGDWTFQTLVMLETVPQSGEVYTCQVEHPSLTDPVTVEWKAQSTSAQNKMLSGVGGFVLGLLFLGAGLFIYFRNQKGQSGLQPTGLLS
As to the kind of experiment: simultaneous assay, E^d allele (A20 APC, G28.C9 T hybridoma, HEL106-116; HT-2 [3H]TdR readout). In kind it is cell-based. Also noted: The A20 and CH27 B cell lymphoma lines express H-2^d and H-2^k alleles, respectively; endogenous in cells; host or cells: A20 B cell lymphoma (mitomycin C-treated or paraformaldehyde-fixed). A digest of the protocol:
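Read-out is [3H]TdR incorporation into HT-2 indicator cells exposed to supernatant from a 24 h primary culture. That culture combined mitomycin C-treated APC (5×10^6 cells/mL, 0.025 mg/mL mitomycin C, 20 min, 37° C), peptide, effector compound and T hybridoma, all added at once.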

The mark [1] stands for this setting: Table 15, AE peptide 16 μM, supernatant 1:4.
Where [2] appears, read: Table 14, AE peptide 64 μM, supernatant 1:4.
The mark [3] stands for this setting: Table 4, AE109 homolog 64 μM, supernatant 1:2.
The mark [4] stands for this setting: Table 7, AE peptide 64 μM, supernatant 1:4.
Where [5] appears, read: Table 16, AE peptide 4 μM, supernatant 1:8.
The mark [6] stands for this setting: Table 2, AE peptide 64 μM, 0.05 μM HEL106-116, supernatant 1:2.
Setting [7] is: Table 5, AE peptide 64 μM, supernatant 1:4.
Setting [8] is: Table 11, AE peptide 64 μM, supernatant 1:8.
[9] abbreviates: Table 9, AE peptide 64 μM, supernatant 1:4.
[10] abbreviates: Table 8, AE peptide 4 μM (third), supernatant 1:8.
[11] abbreviates: Table 8, AE peptide 16 μM (second), supernatant 1:8.
[12] abbreviates: Table 8, AE peptide 64 μM (first), supernatant 1:8.
Where [13] appears, read: Table 10, AE peptide 16 μM (second value), supernatant 1:2.
Where [14] appears, read: Table 10, AE peptide 64 μM (first value), supernatant 1:2.
The mark [15] stands for this setting: Table 1, AE peptide 16 μM (second value), 0.4 μM HEL106-116, supernatant 1:4.
[16] abbreviates: Table 1, AE peptide 64 μM (first value), 0.4 μM HEL106-116, supernatant 1:4.

The record followed here is US6835382B2, “Ii peptide therapeutics to enhance antigen presentation” (University of Massachusetts, priority 1996, dated 2004).

Non-standard residues stand in square brackets, D forms with d. hArg = N=C(N)NCCCC[C@H](N)C(=O)O; Cit = NC(=O)NCCC[C@H](N)C(=O)O; Orn = NCCC[C@H](N)C(=O)O

Ac-LRLK HArg PK-NH2 [AE341]: the “Times Baseline Response, E^d” value under setting [1] worked out at 38.9.

As to Ac-ARNKNPK-NH2 [AE346], the “Times Baseline Response, E^d” value under setting [1] amounted to 1.2.

For the substance Ac-LRLKyPK-NH2 [AE308], the “Times Baseline Response, E^d” value under setting [2] stood at 12.6.

For Ac-Y N MKLPKSAK-NH2 [AE137], the “Times Baseline Response, E^d” value under setting [3] came to 0.8.

As to “Ac-LRMK H PK-NH2 (Ac-LRMKHPK-NH2) [AE228]”, the “Times Baseline Response, E^d” value under setting [4] was 8.5.

With “Ac-LRMK K PK-NH2 (Ac-LRMKKPK-NH2) [AE229]”, the “Times Baseline Response, E^d” value under setting [4] is 13.2.

As for “Ac-LRMK Y PK-NH2 (Ac-LRMKYPK-NH2; not fully specified; printed as Ac-LRMK Y PK-NH2) [AE235]”, the “Times Baseline Response, E^d” value runs as follows: under setting [4], 14.6; under setting [2], 12.5; under setting [1], 29.4; under setting [5], 14.3; (Table 17, AE peptide 4 μM, supernatant 1:4) 51; (Table 18, AE peptide 64 μM, supernatant 1:4) 12.5.

“Ac-LRMK HArg PK-NH2 (Ac-LRMK[hArg]PK-NH2; SMILES CSCC[C@H](NC(=O)[C@H](CCCNC(=N)N)NC(=O)[C@H](CC(C)C)NC(C)=O)C(=O)N[C@@H](CCCCN)C(=O)N[C@@H](CCCCNC(=N)N)C(=O)N1CCC[C@H]1C(=O)N[C@@H](CCCCN)C(N)=O) [AE227]”: the “Times Baseline Response, E^d” value was 8.1 under setting [4] and 32.3 under setting [1].

Regarding Ac-SLRMKLPKSAK-NH2 [AE155], the “Times Baseline Response, E^d” value under setting [6] was 23.4.

For Ac-LR HArg KLPK-NH2 [AE197], the “Times Baseline Response, E^d” value under setting [7] is 10.7 and the “Times Baseline Response, E^d” value under setting [5] is 16.3.

With Ac-LRLKWPK-NH2 [AE309], the “Times Baseline Response, E^d” value reads like this: under setting [2], 12.1; under setting [1], 13.1; under setting [5], 20.0.

With Ac-LR m KLPK-NH2 [AE162], under setting [8], the “Times Baseline Response, E^d” value is listed as 2.2.

On to Ac-LRMKLP[Cit]-NH2 [AE241], for which the “Times Baseline Response, E^d” value runs as follows: under setting [9], 3.4; under setting [5], 7.1.

Turning to “Ac-YRMKL hydrP KSAK-NH2 (Ac-YRMKL[hydrP]KSAK-NH2) [AE143]”, the “Times Baseline Response, E^d” value is on record as 8.0 under setting [10], 19.6, under setting [11] and 19.4, under setting [12].

Ac-Y F MKLPKSAK-NH2 [AE139]: under setting [3], the “Times Baseline Response, E^d” value was 0.8.

On to “Ac-LRMK Q PK-NH2 (Ac-LRMKQPK-NH2) [AE233]”, for which the “Times Baseline Response, E^d” value under setting [4] was determined as 11.5.

Consider Ac-Y D MKLPKSAK-NH2 [AE135], for which the “Times Baseline Response, E^d” value under setting [3] is given as 1.2.

As for Ac-YAMKLPKSAK-NH2 [AE121], the “Times Baseline Response, E^d” value runs as follows: under setting [3], 1.1; under setting [13], 1.9; under setting [14], 2.7.

As to “Ac-LRMKLP N-NH2 (Ac-LRMKLPN-NH2) [AE246]”, the “Times Baseline Response, E^d” value is on record as 7.3 under setting [9] and 21.8 under setting [5].

For Ac-ARMKNPK-NH2 [AE345], the “Times Baseline Response, E^d” value under setting [1] is 3.7.

As to Ac-Y[Orn]MKLPKSAK-NH2 [AE130], the “Times Baseline Response, E^d” value under setting [3] was 0.9.

Ac-L[Cit]NKLPK-NH2 [AE343]: under setting [1], the “Times Baseline Response, E^d” value was found to be 1.2.

For the substance Ac-Y L MKLPKSAK-NH2 [AE142], under setting [3], the “Times Baseline Response, E^d” value amounted to 0.8.

For the substance Ac-YRMK-NH2 [AE117], the “Times Baseline Response, E^d” value reads like this: under setting [15], 1.0; under setting [16], 2.3.

In the case of Ac-LRM k LPK-NH2 [AE163], the “Times Baseline Response, E^d” value under setting [8] was determined as 2.4.

Consider Ac-NLQLDSLRMKLPKSAK-NH2 [AE150], for which, under setting [6], the “Times Baseline Response, E^d” value was 3.2.

For the substance Ac-DSLRMKLPKSAK-NH2 [AE154], under setting [6], the “Times Baseline Response, E^d” value is 15.1.

For Ac-L[Cit]MKNPK-NH2 [AE342], the “Times Baseline Response, E^d” value under setting [1] is 2.3.

As to Ac-QLDSLRMKLPKSAK-NH2 [AE152], under setting [6], the “Times Baseline Response, E^d” value amounted to 2.3.

In the case of Ac-LDSLRMKLPKSAK-NH2 [AE153], the “Times Baseline Response, E^d” value under setting [6] worked out at 8.5.

Ac-LR (mL) KyPK-NH2 [AE304]: the “Times Baseline Response, E^d” value under setting [2] is 3.9.

For “Ac-LRMK F PK-NH2 (Ac-LRMKFPK-NH2) [AE234]”, the “Times Baseline Response, E^d” value under setting [4] was 14.2.

Regarding Ac-LRNKNPK-NH2 [AE349], the “Times Baseline Response, E^d” value under setting [1] is given as 25.3.

For the substance “Ac-LRMKLP F-NH2 (Ac-LRMKLPF-NH2) [AE248]”, the “Times Baseline Response, E^d” value runs as follows: under setting [9], 17.2; under setting [1], 34.7.

Take “Ac-LRMK N PK-NH2 (Ac-LRMKNPK-NH2) [AE232]”: the “Times Baseline Response, E^d” value runs as follows: under setting [4], 12.5; under setting [1], 24.3.

For Ac-LR (mL) KYPK-NH2 [AE303], the “Times Baseline Response, E^d” value under setting [2] is reported as 4.0.

With Ac-LRMKLPKPPP-NH2 [AE167], the “Times Baseline Response, E^d” value under setting [16] was 20.1, n.d.

Turning to Ac-l RMKLPK-NH2 [AE160], the “Times Baseline Response, E^d” value under setting [8] is listed as 11.0.

As for Ac-ARMKLPKSAK-NH2 [AE120], the “Times Baseline Response, E^d” value reads like this: under setting [13], 18.1; under setting [14], 35.4; under setting [1], 19.4.

YRMKLPKSAKPVSQMR [AE101]: the “Times Baseline Response, E^d” value runs as follows: under setting [15], 4.9; under setting [16], 13.6.

As for Ac-Y[hArg]MKLPKSAK-NH2 [AE132], the “Times Baseline Response, E^d” value runs as follows: under setting [3], 1.8; under setting [5], 3.9.

Take Ac-YRMKLPKSAK-NH2 [AE109]: the “Times Baseline Response, E^d” value is, setting by setting: under setting [15], 20.8; under setting [16], 39.3; under setting [6], 25.5; under setting [3], 3.3; under setting [10], 7.4; under setting [11], 17.6,. In addition, the “Times Baseline Response, E^d” value is, setting by setting: under setting [12], 16.4,; under setting [13], 24.3; under setting [14], 27.5.

As to Ac-LR (mL) KYPk-NH2 [AE305], the “Times Baseline Response, E^d” value under setting [2] was 5.2.

On to “Ac-LRMK Cit PK-NH2 (Ac-LRMK[Cit]PK-NH2; SMILES CSCC[C@H](NC(=O)[C@H](CCCNC(=N)N)NC(=O)[C@H](CC(C)C)NC(C)=O)C(=O)N[C@@H](CCCCN)C(=O)N[C@@H](CCCNC(N)=O)C(=O)N1CCC[C@H]1C(=O)N[C@@H](CCCCN)C(N)=O) [AE226]”, for which the “Times Baseline Response, E^d” value under setting [4] turned out to be 9.0.

Consider Ac-Y Y MKLPKSAK-NH2 [AE140], for which the “Times Baseline Response, E^d” value under setting [3] is reported as 0.7.

Regarding Ac-LRLKYPk-NH2 [AE307], the “Times Baseline Response, E^d” value under setting [2] was 13.2.

On to Ac-LR[Orn]KLPK-NH2 [AE195], for which the “Times Baseline Response, E^d” value runs as follows: under setting [7], 12.1; under setting [1], 34.3.

As to Ac-LRMK[Orn]PK-NH2 [AE225], the “Times Baseline Response, E^d” value under setting [4] was 10.4.

Take “Ac-LR L KLPK-NH2 (Ac-LRLKLPK-NH2; not fully specified; printed as Ac-LR L KLPK-NH2) [AE206]”: the “Times Baseline Response, E^d” value came out at 11.9 under setting [7], 12.7 under setting [2], 25.5 under setting [1] and 15.5 under setting [5].

As for Ac-YRMKLP-NH2 [AE115], the “Times Baseline Response, E^d” value is, setting by setting: under setting [15], 5.7; under setting [16], 19.9.

As for “Ac-LRMK D PK-NH2 (Ac-LRMKDPK-NH2) [AE230]”, the “Times Baseline Response, E^d” value under setting [4] amounted to 0.6.

Consider Ac-LRNKNPF-NH2 [AE348], for which, under setting [1], the “Times Baseline Response, E^d” value worked out at 13.1.

Consider Ac-Y E MKLPKSAK-NH2 [AE136], for which, under setting [3], the “Times Baseline Response, E^d” value was found to be 0.9.

Turning to Ac-LRMKLP k-NH2 [AE166], the “Times Baseline Response, E^d” value reads like this: under setting [8], 26.4; under setting [2], 14.7.

Regarding Ac-LRMKLPKPPK-NH2 [AE168], under setting [16], the “Times Baseline Response, E^d” value is reported as 16.7, n.d.

With “Ac-LRMK E PK-NH2 (Ac-LRMKEPK-NH2) [AE231]”, under setting [4], the “Times Baseline Response, E^d” value stood at 1.8.

For Ac-LRMK l PK-NH2 [AE164], the “Times Baseline Response, E^d” value under setting [8] came to 17.7 and the “Times Baseline Response, E^d” value under setting [2] was 12.9.

Consider Ac-YRMKLPK-NH2 [AE113], for which the “Times Baseline Response, E^d” value is, setting by setting: under setting [15], 23.1; under setting [16], 36.3. In addition, where the note is “Table 3, AE peptide 64 μM, supernatant 1:4”, the “Times Baseline Response, Ed” value is on record as 12.3.
